From patent US20020058798A1 (YEDA RESEARCH AND DEVELOPMENT, published 2002) come the findings set out here.

Changes are numbered by the printed parent chain.

The target in one data set is T1, SNF1 (UniProt P06782 1-633, limits assumed).
T1 sequence (looked up): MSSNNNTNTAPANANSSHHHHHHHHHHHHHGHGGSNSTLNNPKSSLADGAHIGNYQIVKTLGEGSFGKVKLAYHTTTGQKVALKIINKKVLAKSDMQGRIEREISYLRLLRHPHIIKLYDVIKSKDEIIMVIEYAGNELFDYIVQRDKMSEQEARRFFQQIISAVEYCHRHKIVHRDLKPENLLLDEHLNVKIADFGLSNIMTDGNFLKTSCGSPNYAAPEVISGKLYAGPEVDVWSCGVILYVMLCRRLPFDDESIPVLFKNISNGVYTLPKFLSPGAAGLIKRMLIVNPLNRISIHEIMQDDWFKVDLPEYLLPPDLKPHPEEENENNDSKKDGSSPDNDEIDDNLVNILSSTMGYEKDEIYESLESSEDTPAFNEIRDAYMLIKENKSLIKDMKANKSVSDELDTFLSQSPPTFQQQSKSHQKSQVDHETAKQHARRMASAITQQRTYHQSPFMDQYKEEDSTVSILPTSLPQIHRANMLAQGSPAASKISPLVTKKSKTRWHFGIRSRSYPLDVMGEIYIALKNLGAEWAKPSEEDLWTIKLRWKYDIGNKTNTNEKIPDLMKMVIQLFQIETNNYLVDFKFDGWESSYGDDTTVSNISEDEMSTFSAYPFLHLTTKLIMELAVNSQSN
As to the kind of experiment: yeast two-hybrid beta-galactosidase filter assay (SFY526); row = Gal4 DNA-binding-domain hybrid, column = activation-domain hybrid; + = strong color within 90 min; positive control.

The next data set addresses T2, Mouse Fas-IC, full (mouse, UniProt P25446 187-327).
T2 construct: domain: FAS-IC (intracellular domain); also called mFAS-IC
T2 sequence (looked up): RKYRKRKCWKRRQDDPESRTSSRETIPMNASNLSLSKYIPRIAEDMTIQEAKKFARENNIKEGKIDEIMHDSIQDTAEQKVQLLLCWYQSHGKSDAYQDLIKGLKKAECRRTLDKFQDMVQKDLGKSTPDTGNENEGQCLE
The experiment in a line: yeast two-hybrid beta-galactosidase filter assay (SFY526); row = Gal4 DNA-binding-domain hybrid, column = activation-domain hybrid; ++ = strong color within 30 min.

The next data set addresses T3, Mouse Fas-IC 197-306 (mouse, UniProt P25446 218-327).
T3 construct: range 197-306
T3 sequence (looked up): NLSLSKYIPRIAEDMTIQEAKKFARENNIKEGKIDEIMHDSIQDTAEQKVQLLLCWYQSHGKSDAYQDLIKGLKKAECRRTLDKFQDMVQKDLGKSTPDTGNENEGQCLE
The description is as above.

Data set [1] deals with the molecule itself. Described as above.
Data set [2] has as its target T4, GST-mFAS-IC I225A (GST fusion with FAS-IC containing an Ile to Ala replacement at position 225) (mouse, UniProt P25446 187-327).
T4 construct: also called GST-FAS-IC with a replacement at the lpr^cg mutation site; not shown: Glutathione S-transferase (GST)
T4 sequence (looked up): T2 sequence (looked up) with I60A
The experiment in a line: GST pull-down: 35S-labeled FLAG-HF1 from HeLa extracts on GST fusion bound to glutathione beads, SDS-PAGE and autoradiography. The text has this: The [³⁵S] labeled proteins of the HeLa cells including the labeled FLAG-MORT1 fusion protein having been first extracted were subjected to interaction with the various GST and GST-FAS-IC proteins (bound to glutathione beads) and then to SDS-PAGE. As controls in all of the interaction experiments, extracts of HeLa cells transfected with luciferase were subjected to interactions with the GST and GST-FAS-IC fusion proteins and SDS-PAGE. FIGS. 1A and B are also described in Example 1.
Expression of HF1 (MORT-1) molecules fused at their N terminus with the FLAG octapeptide (FLAG-HF1) yielded in HeLa cells proteins of four distinct sizes—about 27, 28, 32, and 34 kD. […] Thus the in vitro interaction was evaluated by assessing, by autoradiography following SDS-PAGE, the binding of [³⁵S] metabolically labeled HF1, produced in transfected HeLa cells as a fusion with the FLAG octapeptide (FLAG-HF1), to GST, GST fusion with the human or mouse FAS-IC (GST-huFAS-IC, GST-mFAS-IC) or to GST fusion with FAS-IC containing an Ile to Ala replacement mutation at position 225.

B1: SNF4 (other, UniProt P12904 1-322, looked up)
chain: MKPTQDSQEKVSIEQQLAVESIRKFLNSKTSYDVLPVSYRLIVLDTSLLVKKSLNVLLQNSIVSAPLWDSKTSRFAGLLTTTDFINVIQYYFSNPDKFELVDKLQLDGLKDIERALGVDQLDTASIHPSRPLFEACLKMLESRSGRIPLIDQDEETHREIVVSVLTQYRILKFVALNCRETHFLKIPIGDLNIITQDNMKSCQMTTPVIDVIQMLTQGRVSSVPIIDENGYLINVYEAYDVLGLIKGGIYNDLSLSVGEALMRRSDDFEGVYTCTKNDKLSTIMDNIRKARVHRFFVVDDVGRLVGVLTLSDILKYILLGSN
Take B1: the binding result with SNF1 is recorded as “binds”.

B2: MORT-1 (full) (other)
chain: VNQAPECRFGGGILGPLGKRRDLARASEPRTEGARRAGPQPRPLADPAMDPFLVLLHSVSSSLSSSELTELKFLCLGRVVKRKLERVQSGLDLFSMLLEQNDLEPGHTELLRELLASLRRHDLLRRVDDFEAGAAAGAAPGEEDLCAAFNVICDNVGKDWRRLARQLKVSDTKIDSIEDRYPRNLTERVRESLRIWKNTEKENATVAHLVGALRSCQMNLVADLVQEVQQARDLQNRSGAMSPMSWNSDASTSEAS
notes: The Gal4 part is not written as a piece; Met 49 is a possible translation start; also called HF1; HF-1
Turning to B2, the binding result with Mouse Fas-IC, full is recorded as “binds”; with Mouse Fas-IC 197-306 it was “binds”; in data set [1], “binds”.

B3: FLAG-MORT1 fusion protein (MORT-1 N-linked to the FLAG octapeptide) (other)
chain: B2 chain
modifications: metabolically labeled with [35S]methionine (and [35S]cysteine for the co-immunoprecipitations)
notes: also called FLAG-HF1; HF1-FLAG; not shown: FLAG octapeptide (Eastman Kodak)
With B3, the binding result in data set [2] is recorded as “no binding”.
